Publication PMC3094495

How the values were obtained:
[1] = target: λ Cro (Escherichia phage lambda) (UniProt P03040); conditions: cited from earlier work
[2] = target: bacteriophage N15 Cro (bacteriophage N15); experiment: native MS
[3] = target: N15 Cro (Escherichia phage N15) (UniProt P03040); conditions: cited from earlier work
[4] = target: T1, bacteriophage λ Cro (bacteriophage λ), P03040; experiment: native MS; conditions: remark: other sources report otherwise
T1 chain: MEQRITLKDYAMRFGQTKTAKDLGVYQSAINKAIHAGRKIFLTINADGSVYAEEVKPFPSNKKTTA

Molecule: λ Cro (from UniProt P03040)
- Kd [1]: 3 µM

Molecule: bacteriophage N15 Cro (natural protein)
- stoichiometry N [2]: 2

Molecule: N15 Cro (from UniProt P03040)
- Kd [3]: 5 µM

B1: bacteriophage λ Cro, P03040 1-66 (natural protein)
chain: MEQRITLKDYAMRFGQTKTAKDLGVYQSAINKAIHAGRKIFLTINADGSVYAEEVKPFPSNKKTTA
- stoichiometry N [4]: 2
